Blank lines part the entries; values can stand above or below the molecule they belong to. Bridges are numbered along the chain shown (N, C = ends). Where no end group is shown, it is not given here.
How the values were obtained:
[1] = system: multiple matrix-metalloproteases (MMPs); assay: Matrix Metalloproteinase (MMP) Inhibitor Profiling Kit, positive control; assay type: biochemical; details: P<0.01
Experimental: FIG. 8A-B. Selectivity of P12-3A for IDE vis-à-vis other proteases. Activity of P12-3A (100 μM) against (A) multiple matrix-metalloproteases (MMPs) and (B) multiple peptidases of different protease classes. […] Data are mean±SEM, n=8-16 per group. P<0.05 by 2-tailed Student's t-test. […] See Experimental Procedures for details. NEP, neprilysin; mCatD, murine cathepsin D; hCatD, human cathepsin D.
Degradation Assays—IDE activity was quantified by monitoring the degradation of (7-methoxycoumarin-4-yl)acetic acid-[…](2,4-dinitrophenyl) (FRET1, 5 μM) (49,55), fluoresceinated and biotinylated amyloid β-protein (FAβB; 500 nM) or recombinant human insulin (50 nM) in PBS supplemented with 0.05% BSA. FRET1 degradation was measured by changes in fluorescence (λex=340 nm, λem=420 nm); FAβB degradation was monitored by fluorescence polarization (λex=488 nm, λem=525 nm), as described (56); and insulin degradation was quantified by ELISA. In vitro activity assays incorporated recombinant human IDE (1 nM) purified from bacteria (35). For quantitation of insulin degradation in primary murine skin fibroblasts, cells (1×10^5/well) were plated in 96-well plates and maintained in DMEM supplemented with 10% fetal bovine serum (FBS), 2 mM glutamine, penicillin and streptomycin. […]

[2] = biological target: T1, recombinant human insulin-degrading enzyme (IDE) (human, UniProt P14735 42-1019, limits assumed); assay: FRET1 activity assay after 0 or 4 h pre-incubation of the peptide with IDE
T1 construct: Used at 1 nM in the in vitro activity assays; immobilised on plates for phage panning
T1 sequence (looked up): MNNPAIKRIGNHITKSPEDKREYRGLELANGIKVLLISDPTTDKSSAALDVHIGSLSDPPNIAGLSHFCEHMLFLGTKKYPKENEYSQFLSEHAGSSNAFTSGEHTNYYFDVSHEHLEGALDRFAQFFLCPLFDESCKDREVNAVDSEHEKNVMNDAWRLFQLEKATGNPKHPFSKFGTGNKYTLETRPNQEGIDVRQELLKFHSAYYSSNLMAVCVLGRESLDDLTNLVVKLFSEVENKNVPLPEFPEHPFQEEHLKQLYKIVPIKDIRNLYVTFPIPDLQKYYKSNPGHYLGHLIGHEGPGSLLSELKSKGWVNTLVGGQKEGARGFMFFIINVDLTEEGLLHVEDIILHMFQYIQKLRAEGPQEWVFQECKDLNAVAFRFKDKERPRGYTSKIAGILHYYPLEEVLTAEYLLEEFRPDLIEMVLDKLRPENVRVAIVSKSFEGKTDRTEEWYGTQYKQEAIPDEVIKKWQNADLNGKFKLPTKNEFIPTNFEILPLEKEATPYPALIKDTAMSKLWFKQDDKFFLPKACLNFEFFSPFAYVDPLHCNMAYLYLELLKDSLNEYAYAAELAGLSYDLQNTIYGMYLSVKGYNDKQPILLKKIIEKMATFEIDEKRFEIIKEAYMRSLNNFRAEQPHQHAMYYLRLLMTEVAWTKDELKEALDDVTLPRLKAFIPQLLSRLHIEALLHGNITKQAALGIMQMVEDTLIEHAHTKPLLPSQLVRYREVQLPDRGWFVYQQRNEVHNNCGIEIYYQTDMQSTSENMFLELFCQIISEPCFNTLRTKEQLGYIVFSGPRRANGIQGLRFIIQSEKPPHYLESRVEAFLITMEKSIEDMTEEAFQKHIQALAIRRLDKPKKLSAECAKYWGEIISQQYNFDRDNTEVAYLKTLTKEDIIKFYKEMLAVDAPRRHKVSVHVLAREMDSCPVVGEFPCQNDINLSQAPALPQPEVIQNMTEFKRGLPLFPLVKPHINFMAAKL

[3] = biological target: T1, recombinant human insulin-degrading …; assay: IDE activity assay, FAβB degradation (fluorescence polarization)
[4] = biological target: T1, recombinant human insulin-degrading …; assay: IDE activity assay, FRET1 degradation
[5] = biological target: T1, recombinant human insulin-degrading …; assay: IDE activity assay, insulin substrate (ELISA); IC50 converted to Ki (Cheng-Prusoff)
[6] = biological target: T1, recombinant human insulin-degrading …; assay: IDE activity assay, FRET1 substrate; IC50 converted to Ki (Cheng-Prusoff)

Molecule: COc1ccc(S(=O)(=O)N(CC(=O)NO)CC(C)C)cc1 [NNGH]
inhibition of MMPs by positive control [1]: significant inhibition

B3: P12-3 (peptide)
peptide: H-QSLPWCYPHCVT-OH
modifications: not fully specified; cysteine pairing not given here
notes: Two cysteines predicted to form a disulfide bond; not deliberately cyclized before testing
Ki [5]: 3.9 µM
Ki [6]: 8.9 µM

Continued, values first:

fold increase in potency at the 4-h time point relative to t=0 [2]: 1 fold
B1: P12-3A (QSLPWCYPHCVT-amide), as first synthesized, not deliberately cyclized (peptide)
peptide: H-QSLPWCYPHCVT-NH2
modifications: not fully specified; printed as QSLPWCYPHCVT-amide; cysteine pairing not given here
notes: also called C-terminally amidated variant of P12-3

Ki [3]: 2100 nM
Ki [4]: 2700 nM
B2: P12-3A, deliberately cyclized, highly pure cosmetic-grade version (peptide)
peptide: QSLPWCYPHCVT-NH2
modifications: disulfide 6-10 (inferred)
notes: also called cyclized P12-3A
